Measured values from patent US11857697B2, “Compositions and methods for obtaining 3-dimensional lung-like epithelium and related uses thereof” (THE REGENTS OF THE UNIVERSITY OF MICHIGAN, priority 2017, dated 2024).

Columns and labels:
Assay type in all cases: cell-based
E13.5 mouse lung buds = assay: Marker expression (QRT-PCR, immunostaining) in cultured mouse lung buds
Method: (§1) RNA was extracted using the MagMAX-96 Total RNA Isolation System (Life Technologies). RNA quality and concentration was determined on a Nanodrop 2000 spectrophotometer (Thermo Scientific). 100 ng of RNA was used to generate a cDNA library using the SuperScript VILO cDNA master mix kit (Invitrogen) according to manufacturer's instructions. qRT-PCR analysis was conducted using Quantitect SYBR Green Master Mix (Qiagen) on a Step One Plus Real-Time PCR system (Life Technologies). Expression was calculated as a change relative to GAPDH expression using arbitrary units, which were calculated by the following equation: [2^(GAPDH Ct−Gene Ct)]×10,000. A Ct value of 40 or greater was considered not detectable. A list of primer sequences used can be found in Table 1.
(§2) Mouse bud, human bud, and HLO tissue was fixed in 4% Paraformaldehyde (Sigma) for 2 hours and rinsed in PBS overnight. Tissue was dehydrated in an alcohol series, with 30 minutes each in 25%, 50%, 75% Methanol:PBS/0.05% Tween-20, followed by 100% Methanol, and then 100% Ethanol. Tissue was processed into paraffin using an automated tissue processor (Leica ASP300). Paraffin blocks were sectioned 5-7 uM thick, and immunohistochemical staining was performed as previously described (Spence et al., 2009). A list of antibodies, antibody information and concentrations used can be found in Table 2. PAS Alcian blue staining was performed using the Newcomer supply Alcian Blue/PAS Stain kit (Newcomer Supply, Inc.) according to manufacturer's instructions.
For whole mount staining tissue was placed in a 1.5 mL eppendorf tube and fixed in 4% paraformaldehyde (Sigma) for 30 minutes. Tissue was then washed with PBS/0.05% Tween-20 (Sigma) for 5 hours, followed by a 2.5-hour incubation with blocking serum (PBS-Tween-20 plus 5% normal donkey serum). Primary antibodies were added to blocking serum and tissue was incubated for at least 24 hours at 4 degrees Celsius. Tissue was then washed for 5 hours with several changes of fresh PBS-Tween-20. Secondary antibodies were added to fresh blocking solution and tissue was incubated for 12-24 hours, followed by 5 hours of PBS-Tween-20 washes. Tissue was then dehydrated to 100% methanol and carefully moved to the center of a single-well EISCO concave microscope slide (ThermoFisher Cat#S99368) using a glass transfer pipette. 5-7 drops of Murray's clear ([…] [Sigma]) were added to the center of the slide, and slides were coverslipped and sealed with clear nail polish.

human fetal lung buds = assay: Marker expression (QRT-PCR, immunostaining) in cultured human fetal lung buds
Method: as §1
as §2, with “PAS Alcian blue staining was performed using the Newcomer supply Alcian Blue/PAS Stain kit (Newcomer Supply, Inc.) according to manufacturer's instructions.” left out

[1] = tested on: hPSC-derived foregut spheroids / HLOs; assay: hPSC-derived foregut spheroid / human lung organoid (HLO) culture: growth and phenotype
Method: Given the robustness by which 3F media supported mouse and human lung bud progenitor growth and identity, experiments sought to determine whether these culture conditions could promote a distal epithelial lung progenitor-like population from hPSCs. NKX2.1+ ventral foregut spheroids were generated as previously described (Dye et al., 2016a; 2015), and were cultured in a droplet of Matrigel and overlaid with media containing 3F (FGF7, CHIR-99021, RA). Spheroids were considered to be “day 0” on the day they were placed in Matrigel. […] Epithelial structures grew first as cystic structures over the course of 2 weeks, followed by a period of epithelial folding that occurred between weeks 3-4 (FIG. 7A; FIG. 8C-D). Around 5-6 weeks in culture, the epithelial structures began forming bud-like structures that resembled human fetal epithelial distal bud tips that underwent bifurcations (FIG. 7A-B; FIG. 8D—bottom row). HLOs were passaged by gently removing Matrigel and replating in a fresh droplet while preserving structural integrity. In this way, HLOs were able to grow for over 16 weeks in culture while retaining their original shape. HLOs could also be passaged using mechanical shear through a 27-gauge needle, followed by embedding in fresh Matrigel and 3F media (FIG. 8E). Following passage, HLOs robustly re-established many small cysts that were expanded and serially passaged every 7-10 days many times (FIG. 8F).
The University of Michigan Human Pluripotent Stem Cell Research Oversight (hPSCRO) Committee approved all experiments using human embryonic stem cell (hESC) lines. hESC line UM63-1 (NIH registry #0277) was obtained from the University of Michigan and hESC line H9 (NIH registry #0062) was obtained from the WiCell Research Institute. ES cell lines were routinely karyotyped to ensure normal karyotype and ensure the sex of each line (H9-XX, UM63-1-XX). Cells are monitored for mycoplasma infection monthly using the MycoAlert Mycoplasma Detection Kit (Lonza). […]

[2] = proportion of organoids in the medium

B1: Recombinant Human Fibroblast Growth Factor 7 (protein, UniProt P21781 32-194, looked up)
Fibroblast growth factor 7: CNDMTPEQMATNVNCSSPERHTRSYDYMEGGDIRVRRLFCRTQWYLRIDKRGKVKGTQEMKNNYNIMEIRTVAVGIVAIKGVESEFYLAMNKEGKLYAKKECNEDCNFKELILENHYNTYASAKWTHNGGEMFVALNQKGIPVRGKKTKKEQKTAHFLPMAIT
notes: Recombinant human growth factor from R&D systems, used at 10 ng/mL unless otherwise noted
Scgb1a1 expression after switch to FGF7 only (QRT-PCR) (E13.5 mouse lung buds; 5 days 4F media then 4 days FGF7 only, versus 4F): increased | SOX9 protein and mRNA expression after switch to FGF7 only (E13.5 mouse lung buds; 5 days 4F media then 4 days FGF7 only, versus 4F throughout): reduction of SOX9 protein and mRNA expression | Sox9 expression over time in culture (QRT-PCR) (E13.5 mouse lung buds; FGF7 culture, compared to day 0): significantly reduced after 3 days in culture | Expression of mature alveolar markers Aqp5 and Sftpb over time (QRT-PCR) (E13.5 mouse lung buds; FGF7 culture, length of time in culture): significant increases | Expression of proximal airway markers P63 and SCGB1A1 (QRT-PCR) (human fetal lung buds; 4 weeks in culture, compared to 14 week old human fetal lung): significantly increased expression | SOX9 and SOX2 immunostaining (human fetal lung buds; sections and wholemount, 4 weeks in vitro): expressed both markers, but strong cytoplasmic SOX9 localization was observed | HLO morphology after switch to FGF7 only ([1]; 42 days 3F then 26 days FGF7 only, compared to 3F HLOs): lost the peripheral bud-like regions | HLOs with 'dense' phenotype [1, 2]: 90% | HLOs with clear epithelial phenotype [1, 2]: 5%
